The supplement of paper PMC7125110
± gives the standard error. Fewer inactive variants are shown than the library holds.

B1: glmS ribozyme (parent)
chain: AUAAAAGCGCCAGAACUACAGAAAUGUAGUUGACGAGGAGGAGGUUUAUCGAAUUUUCGGCGGAUGCCUCCAAA

What was measured:
Details in all cases: with glucosamine-6-phosphate
[1] = variants of: B1; assay: self-cleavage kobs at 40 uM GlcN6P; higher = faster cleavage; RNA array
Procedure, shortened: (§1)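 Barcoded glmS ribozyme variants on sequenced MiSeq chips were transcribed in situ by E. coli RNA polymerase and tracked through a hybridised Cy3 probe at 37 °C. Glucosamine-6-phosphate (40 μM to 10 mM) in HEPES/KCl/Mg(OAc)2 buffer was flowed in, and tiles were imaged over ~14 h. Signals were normalised to baseline and to non-cleaving reference variants; per-tile medians were fit to one- or two-exponential decays to give kobs. kcat and KM came from weighted Michaelis–Menten fits across concentrations.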

[2] = variants of: B1; assay: self-cleavage kobs at 640 uM GlcN6P; higher = faster cleavage; RNA array
Procedure, shortened: as §1

[3] = variants of: B1; assay: self-cleavage kobs at 10000 uM GlcN6P; higher = faster cleavage; RNA array
Procedure, shortened: as §1

[4] = variants of: B1; assay: self-cleavage kobs at 160 uM GlcN6P; higher = faster cleavage; RNA array
Procedure, shortened: as §1

[5] = variants of: B1; assay: self-cleavage kobs at 2500 uM GlcN6P; higher = faster cleavage; RNA array
Procedure, shortened: as §1

Variant | self-cleavage kobs at 40 uM GlcN6P [1] [s⁻¹] | self-cleavage kobs at 640 uM GlcN6P [2] [s⁻¹] | self-cleavage kobs at 10000 uM GlcN6P [3] [s⁻¹] | self-cleavage kobs at 160 uM GlcN6P [4] [s⁻¹] | self-cleavage kobs at 2500 uM GlcN6P [5] [s⁻¹]
U57A U65C | < 1e-05 | < 1e-05 |  |  | 
G62C U65A | < 1e-05 |  |  |  | 
G60C C67U | < 1e-05 |  | < 1e-05 |  | 
A6C G38C |  | < 1e-05 |  | < 1e-05 | 
A6G C34G G51U G63A |  | < 1e-05 |  | < 1e-05 | < 1e-05
G60U G63A C67U | < 1e-05 |  |  |  | 
A6G A53C G63A A64G |  | < 1e-05 |  | < 1e-05 | 
A52G U54G C61G | < 1e-05 |  |  |  | 
U54G U56C | 6.58e-05 ± 1.3e-05 | 0.000986 ± 0.00024 | 0.00518 ± 0.0011 | 0.000146 ± 2.8e-05 | 0.00123 ± 0.00029
A53C C61G | < 1e-05 | < 1e-05 | < 1e-05 |  | 
A53C C61U | < 1e-05 | < 1e-05 |  | < 1e-05 | 
U56A C67U | 0.000175 ± 1.9e-05 | 0.000938 ± 8.9e-05 | 0.00679 ± 0.0012 | 0.000452 ± 6.1e-05 | 0.00474 ± 0.00085
G66A C70A | 8.27e-05 ± 1.4e-05 | 0.000708 ± 0.00013 | 0.000947 ± 0.00015 | 7.28e-05 ± 2.8e-05 | 0.00036 ± 8.5e-05
G66A C70G | 8.19e-05 ± 1.3e-05 | 0.000305 ± 7.2e-05 | 0.00273 ± 0.00055 | 7.92e-05 ± 2.2e-05 | 0.000267 ± 7.7e-05
U54A U69C | 0.000835 ± 0.00028 | 0.000282 ± 6e-05 | 0.000426 ± 0.00011 | 0.000323 ± 8.9e-05 | 0.000214 ± 6.2e-05
G59C C71U | < 1e-05 | < 1e-05 | < 1e-05 | < 1e-05 | < 1e-05
U56G C71A | 8.72e-05 ± 1.6e-05 | 0.000589 ± 0.00013 | 0.00215 ± 0.0004 | 0.000152 ± 4.1e-05 | 0.000518 ± 0.00011
U56G C71U | 0.000303 ± 4.6e-05 | 0.00222 ± 0.00042 | 0.0163 ± 0.0024 | 0.000762 ± 0.00016 | 0.00323 ± 0.00056
A52C G62U | < 1e-05 |  | < 1e-05 | < 1e-05 | 
U54G G63A A64U C70U | < 1e-05 |  |  |  | 
C61U C67A C70U | 4.32e-05 ± 1.7e-05 |  |  |  | 
A53G C67A | 0.000314 ± 3.3e-05 | 0.00067 ± 0.00014 | 0.00957 ± 0.0018 |  | 0.000612 ± 0.00025
U2C G9U U56A C71U |  | < 1e-05 |  | < 1e-05 | 

Variant | self-cleavage kobs at 40 uM GlcN6P [1] [s⁻¹] | self-cleavage kobs at 640 uM GlcN6P [2] [s⁻¹] | self-cleavage kobs at 10000 uM GlcN6P [3] [s⁻¹] | self-cleavage kobs at 160 uM GlcN6P [4] [s⁻¹] | self-cleavage kobs at 2500 uM GlcN6P [5] [s⁻¹]
G59C G62U | < 1e-05 |  | < 1e-05 | < 1e-05 | 
A53G G66A C67A | 0.000154 ± 2.9e-05 |  | 0.0038 ± 0.00083 |  | 0.0011 ± 0.0002
U56A C70U | 0.000377 ± 3.2e-05 | 0.002 ± 0.00026 | 0.0156 ± 0.0024 | 0.000852 ± 0.00013 | 0.0104 ± 0.0022
A64C C67G | < 1e-05 | < 1e-05 |  | < 1e-05 | < 1e-05
U55C G63U | < 1e-05 |  |  |  | 
A6G C10G U46G |  | < 1e-05 |  | < 1e-05 | < 1e-05
U54C U56A | 0.000356 ± 6.9e-05 | 0.00291 ± 0.00036 | 0.0163 ± 0.0038 | 0.000584 ± 0.00011 | 0.00483 ± 0.00092
A6C C8G G66C |  | < 1e-05 |  | < 1e-05 | 
G51C A53U | < 1e-05 |  |  | < 1e-05 | < 1e-05
G51C A53C | < 1e-05 | < 1e-05 |  |  | 
U56C G59A | < 1e-05 |  |  |  | 
G59A G60U C61A | < 1e-05 | < 1e-05 |  |  | < 1e-05
C67U C71G | 1.88e-05 ± 9.1e-06 | 4.78e-05 ± 5.4e-06 | 5.12e-05 ± 5.1e-06 | 3.83e-05 ± 1.2e-05 | 0.00068 ± 0.00033
C61U G63A | < 1e-05 | < 1e-05 | < 1e-05 | < 1e-05 | 
G51A A52C A53G | < 1e-05 |  |  |  | 
C68A U69C | < 1e-05 |  | 4.51e-05 ± 1.6e-05 |  | 
U54G C67U | 0.000313 ± 5.9e-05 | 0.00333 ± 0.00057 |  | 0.000612 ± 0.00014 | 0.00208 ± 0.00059
C61A G62U | < 1e-05 | < 1e-05 | < 1e-05 | < 1e-05 | 
G51U U57C | < 1e-05 | < 1e-05 | < 1e-05 |  | 
G62U C70A | < 1e-05 |  |  |  | 
A6G A64G C67G |  | < 1e-05 |  | < 1e-05 | < 1e-05
C58G C68G | 3.25e-05 ± 1.1e-05 | 9.11e-05 ± 1.1e-05 | 1.82e-05 ± 7.1e-06 | 6.63e-05 ± 1.4e-05 | 9.87e-05 ± 1.7e-05
G60C C71G | < 1e-05 |  | < 1e-05 | < 1e-05 | 

Variant | self-cleavage kobs at 40 uM GlcN6P [1] [s⁻¹] | self-cleavage kobs at 640 uM GlcN6P [2] [s⁻¹] | self-cleavage kobs at 10000 uM GlcN6P [3] [s⁻¹] | self-cleavage kobs at 160 uM GlcN6P [4] [s⁻¹] | self-cleavage kobs at 2500 uM GlcN6P [5] [s⁻¹]
G51A G62C | < 1e-05 | < 1e-05 | < 1e-05 | < 1e-05 | < 1e-05
A6C C8A U31C |  |  |  | < 1e-05 | < 1e-05
U54A C70G | 6.49e-05 ± 8.1e-06 | 0.00033 ± 5.7e-05 | 0.000131 ± 1.5e-05 | 6.78e-05 ± 1e-05 | 0.000176 ± 2.2e-05
A6G C16U A39C |  |  | 6.06e-05 ± 9e-06 | < 1e-05 | 
G51C U57G | < 1e-05 | < 1e-05 |  | < 1e-05 | < 1e-05
A6G G43U U65C |  | < 1e-05 |  | < 1e-05 | < 1e-05
U55G C71U | 0.00104 ± 0.00015 | 0.00353 ± 0.0005 | 0.034 ± 0.0078 | 0.00128 ± 0.00022 | 0.0044 ± 0.00066
G60U G62U | < 1e-05 | < 1e-05 | < 1e-05 | < 1e-05 | < 1e-05
A52G C61G | < 1e-05 |  | < 1e-05 |  | 
G51C A64U | < 1e-05 | < 1e-05 | < 1e-05 | < 1e-05 | 
U56G G62U G63U | < 1e-05 |  | < 1e-05 |  | 
U57A G63U C70G | < 1e-05 |  |  |  | 
U54G U56G G63A C67U | < 1e-05 |  | < 1e-05 |  | 
G59C C67G C70G | < 1e-05 |  |  |  | 
A53C G62A | < 1e-05 |  | < 1e-05 |  | 
C61G C71G | 3.55e-05 ± 1.3e-05 | 7.69e-05 ± 2.5e-05 |  | 0.000119 ± 3e-05 | 4.16e-05 ± 1.6e-05
U55G U57G C67U | < 1e-05 |  |  |  | 
U56C G62C | < 1e-05 | < 1e-05 | < 1e-05 |  | 
G59C G60U | < 1e-05 | < 1e-05 | < 1e-05 | < 1e-05 | < 1e-05
A64C G66U C68G | < 1e-05 | < 1e-05 |  |  | < 1e-05
A53U G59U | < 1e-05 |  | 4.13e-05 ± 7.7e-06 |  | 
A52G U65A U69G C70U | 5.09e-05 ± 1.9e-05 |  | 3.34e-05 ± 1.4e-05 |  | 
G51C U57C C70G | < 1e-05 |  |  |  | 

Variant | self-cleavage kobs at 40 uM GlcN6P [1] [s⁻¹] | self-cleavage kobs at 640 uM GlcN6P [2] [s⁻¹] | self-cleavage kobs at 10000 uM GlcN6P [3] [s⁻¹] | self-cleavage kobs at 160 uM GlcN6P [4] [s⁻¹] | self-cleavage kobs at 2500 uM GlcN6P [5] [s⁻¹]
G60C U65G | < 1e-05 | < 1e-05 | < 1e-05 | < 1e-05 | 
U56C C61G | < 1e-05 |  | < 1e-05 |  | < 1e-05
C50U U57A G60U | < 1e-05 |  | < 1e-05 |  | 
U65G C71A | 4.51e-05 ± 1.7e-05 | 0.000497 ± 5.7e-05 | 0.00276 ± 0.00056 | 6.43e-05 ± 2e-05 | 0.000938 ± 0.00015
A52C C68G | 4.36e-05 ± 1.5e-05 | 0.000126 ± 3.5e-05 | 2.34e-05 ± 1.1e-05 |  | 
G59A U65G | < 1e-05 |  |  |  | 
U56A C68U | 0.000143 ± 2.2e-05 | 0.000955 ± 0.00014 | 0.00472 ± 0.00088 | 0.000404 ± 8.3e-05 | 0.00101 ± 0.00018
U56C U57G | < 1e-05 |  | 8.26e-05 ± 2.1e-05 |  | 2.91e-05 ± 1.2e-05
G62U G63U C68G | < 1e-05 |  |  |  | 
C58G G62U C68A | 4.88e-05 ± 1.8e-05 |  |  |  | 
A53G C67A C70U | 0.000161 ± 2.5e-05 |  | 0.00035 ± 9e-05 |  | 
A53U C68U | 0.000159 ± 2.1e-05 | 0.000788 ± 9.5e-05 | 0.00507 ± 0.00083 | 0.000357 ± 0.00011 | 0.00421 ± 0.00073
U56C C68U | < 1e-05 | < 1e-05 |  |  | 
U57G C61U | < 1e-05 |  |  |  | 
G60U C61G | < 1e-05 |  | < 1e-05 |  | < 1e-05
C58A G59U C68U | < 1e-05 |  |  |  | 
C61U U65A | < 1e-05 | < 1e-05 | < 1e-05 |  | 
A6C C8A C67A |  | < 1e-05 | < 1e-05 | < 1e-05 | < 1e-05
C67A C71U | 7.16e-05 ± 5.5e-06 | 0.000414 ± 4.1e-05 | 0.00183 ± 0.00025 | 0.000151 ± 1.3e-05 | 0.000679 ± 7.6e-05
G51U A53C | < 1e-05 | < 1e-05 |  | < 1e-05 | 
U55C C61U | < 1e-05 |  |  |  | 
